Changes are numbered by the printed parent chain. In names and notes the source's numbering stands.
B1: cyt-ATL2 H462C (also C59A, C143A, C395N, and C441A) (domain or fragment, human, UniProt Q8NHH9 1-467, looked up)
chain: MAEGDEAARGQQPHQGLWRRRRTSDPSAAVNHVSSTTSLGENYEDDDLVNSDEVMKKPAPVQIVLAHEDDHNFELDEEALEQILLQEHIRDLNIVVVSVAGAFRKGKSFLLDFMLRYMYNKDSQSWIGGNNEPLTGFTWRGGAERETTGIQVWNEVFVIDRPNGTKVAVLLMDTQGAFDSQSTIKDCATVFALSTMTSSVQVYNLSQNIQEDDLQHLQLFTEYGRLAMEEIYQKPFQTLMFLIRDWSYPYEHSYGLEGGKQFLEKRLQVKQNQHEELQNVRKHIHNCFSNLGCFLLPHPGLKVATNPSFDGRLKDIDEDFKRELRNLVPLLLAPENLVEKEISGSKVTCRDLVEYFKAYIKIYQGEELPHPKSMLQATAEANNLAAVAGARDTYNKSMEQVCGGDKPYIAPSDLERKHLDLKEVAIKQFRSVKKMGGDEFARRYQDQLEAEIEETYANFIKCNDGKN
modifications: Cy3 maleimide on the engineered 3HB cysteine H462C
B2: cyt-DATL H410C (domain or fragment)
chain: MGGSAVQVINASEEHTFVLNEDALSEVLMRDEVKDRFVCVVSVAGAFRKGKSFLLDFFLRYMYSKYVHHDATDWLGGESDPLEGFSWRGGSERDTTGILMWSDIFLHDYPNGDKIAIILLDTQGAFDSQSTVRDCATVFALSTMLSSVQIYNLSQNIQEDDLQHLQLFTEYGRLALADTGKKPFQRLQFLVRDWSFPYEAEYGALGGDKILKRRLEVSDKQHPELQSLRRHISSCFTEVACFLMPHPGLNVATNPKFDGRLQDITPEFKSSLRSLVPMLLAPDNLVYKEISGQRVRARDLIQYFQSYMNIYKGNELPEPKSMLVATAEANHLTAVAAAKELYGQLMEEVCGGTRPYLSTAHLQTEHLRVKDKALFQFAAKRKMGGEEFTEKFRKQLEDDLEEVFTNYQACNESKN
modifications: Cy3 maleimide on the engineered 3HB cysteine H410C
B3: cyt-ATL1 H435C (domain or fragment, human, UniProt Q8WXF7 1-446, looked up)
chain: MAKNRRDRNSWGGFSEKTYEWSSEEEEPVKKAGPVQVLIVKDDHSFELDETALNRILLSEAVRDKEVVAVSVAGAFRKGKSFLMDFMLRYMYNQESVDWVGDYNEPLTGFSWRGGSERETTGIQIWSEIFLINKPDGKKVAVLLMDTQGTFDSQSTLRDSATVFALSTMISSIQVYNLSQNVQEDDLQHLQLFTEYGRLAMEETFLKPFQSLIFLVRDWSFPYEFSYGADGGAKFLEKRLKVSGNQHEELQNVRKHIHSCFTNISCFLLPHPGLKVATNPNFDGKLKEIDDEFIKNLKILIPWLLSPESLDIKEINGNKITCRGLVEYFKAYIKIYQGEELPHPKSMLQATAEANNLAAVATAKDTYNKKMEEICGGDKPFLAPNDLQTKHLQLKEESVKLFRGVKKMGGEEFSRRYLQQLESEIDELYIQYIKCNDSKNIFHAAR
modifications: Cy3 maleimide on the engineered 3HB cysteine H435C
B4: cyt-ATL2(1–467) S308C (also C59A, C143A, C395N, and C441A) (domain or fragment, human, UniProt Q8NHH9 1-467, looked up)
chain: B1 chain with S308C, C462H
modifications: Alexa Fluor 488 (donor) or 647 (acceptor) maleimide on the engineered G-domain cysteine S308C
B5: cyt-DATL(1–415) S270C (domain or fragment)
chain: B2 chain with S270C, C410H
modifications: Alexa Fluor 488 (donor) or 647 (acceptor) maleimide on the engineered G-domain cysteine S270C
B6: cyt-ATL1(1–446) N281C (domain or fragment, human, UniProt Q8WXF7 1-446, looked up)
chain: B3 chain with N281C, C435H
modifications: Alexa Fluor 488 (donor) or 647 (acceptor) maleimide on the engineered G-domain cysteine N281C

Target: the molecule itself
Assay: PIFE

Binding result, binds:
B1
B2
B3

Target: the molecule itself
Assay: FRET or BRET

Binding result, binds:
B4
B5
B6
